# Assay results published in US20200121803A1 (published 2020).
# Residue numbers refer to the chain shown, from its start.
# T1: human CD98 on the cell surface (human)
# T1 chain: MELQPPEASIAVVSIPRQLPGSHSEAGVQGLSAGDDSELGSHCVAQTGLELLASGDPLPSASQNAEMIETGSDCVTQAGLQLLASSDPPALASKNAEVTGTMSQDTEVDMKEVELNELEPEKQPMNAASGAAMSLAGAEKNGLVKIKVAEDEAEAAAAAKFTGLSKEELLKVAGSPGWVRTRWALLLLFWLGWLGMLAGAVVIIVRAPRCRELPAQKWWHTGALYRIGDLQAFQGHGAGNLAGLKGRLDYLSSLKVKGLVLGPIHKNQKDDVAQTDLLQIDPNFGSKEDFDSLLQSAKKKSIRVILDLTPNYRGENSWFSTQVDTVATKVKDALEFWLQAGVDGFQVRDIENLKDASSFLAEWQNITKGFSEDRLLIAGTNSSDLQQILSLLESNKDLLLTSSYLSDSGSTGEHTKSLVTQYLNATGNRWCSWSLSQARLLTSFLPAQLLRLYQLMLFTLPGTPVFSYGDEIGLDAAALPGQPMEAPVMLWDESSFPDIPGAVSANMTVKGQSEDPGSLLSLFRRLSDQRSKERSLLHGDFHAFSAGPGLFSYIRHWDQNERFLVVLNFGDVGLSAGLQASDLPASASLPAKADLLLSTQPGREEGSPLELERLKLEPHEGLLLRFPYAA
# T2: human CD98 on human cancer cell lines (EBC-1, H2170, Molt-4) (human)
# T2 chain: T1 chain
# T3: human CD98, endogenously expressed on Molt-4 human acute lymphoblastic leukemia cells (human)
# T3 chain: T1 chain
# B1: ChAb1-CZ (other)
# VH: EVKLVESGGGLVQPGGSLRLSCATSGFTFTDYYMSWVRQPPGKALEWLGFIRNPANVYTTEYSASVKGRFTISRDNSQSILYLQMNTLRAEDSATYYCARASYGNSEGWFAYWGQGTLVTVSA
# VL: DIVMSQSPSSLAVSVGEKVTMSCKSSQNLLYNNNQKNYLAWYQQKPGQSPKLLIYWASTRESGVPDRFTGSGSGTDFTLTISSVKAEDLAVYYCQQYYSYPRTFGGGTKLEIK
# modifications: synthon CZ on reduced interchain Cys of the constant regions (sites not numbered)
# B2: ChAb5-CZ (other)
# VH: B1 VH with S35T, P54K, V57G, Q78L, G104V
# VL: B1 VL with N28S, N32S, N33S, P46L, Q96H
# modifications: synthon CZ on reduced interchain Cys of the constant regions (sites not numbered)
# B3: ChAb3-CZ (other)
# VH: EVKLVESGGGLVQPGNSLRLSCATSGFTFIDYYMSWVRQSPGKALEWLGFIRNKANGYTTEYSASVKGRFTISRDNSQSILYLQMDTLRAEDSATYYCTRDRPAWFVYWGQGTLVTVSA
# VL: B1 VL with N28S, N32S, N33S, I81F, K85R, R102Y
# modifications: synthon CZ on reduced interchain Cys of the constant regions (sites not numbered)
# B4: ChAb8-CZ (other)
# VH: EVQLVESGGGLVQPGRSLKLSCAASGFTFSDYAMAWVRQAPKKGLEWVASIIYDGRGTYYRDSVKGRFTISRDNAKSTLYLQMDSLRSEDTATYYCARQGDGTYYYWGYFDYWGQGVMVTVSS
# VL: DIVMTQSPSSLAVSAGETVTINCKSSQSLLSSGNQKNYLAWYQQKPGQSPKLLIYWASTRQSGVPDRFIGSGSGTDFTLTINSVQAEDLAIYYCQQYYDTPYTFGAGTKLELK
# modifications: synthon CZ on reduced interchain Cys of the constant regions (sites not numbered)
# B5: ChAb10-CZ (other)
# VH: B4 VH with G44S, S50T, Y60C, Y105H
# VL: B4 VL with N82S, L110V, E111D
# modifications: synthon CZ on reduced interchain Cys of the constant regions (sites not numbered)
# B6: ChAb12-CZ (other)
# VH: B4 VH with Y109S
# VL: B4 VL with N82S, Y93H
# modifications: synthon CZ on reduced interchain Cys of the constant regions (sites not numbered)
# B7: ChAb15-CZ (other)
# VH: B4 VH with A33T, S50T, G100S
# VL: B4 VL with S31F, N82R, T100S
# modifications: synthon CZ on reduced interchain Cys of the constant regions (sites not numbered)
# B8: ChAb11-CZ (other)
# VH: B4 VH with S50G
# VL: B4 VL with K24R, N82S
# modifications: synthon CZ on reduced interchain Cys of the constant regions (sites not numbered)
# B9: ChAb13-CZ (other)
# VH: QVQLKESGPGLVQPSQTLSLTCTVSGFSLSSYGVIWVRQPPGKGLEWMGIIWANGNTNYNSALKSRLSISRDTSKSQVYLKMNSLQTEDTATYYCARHYYDGTHYYGYFDYWGQGVMVTVSS
# VL: DTVMTQTPSSQAVSAGEKVTMSCKSSQSLLYSENKKKYLAWYQQKPGQSPKLLIYWASTRESGVPDRFIGSGSGTDFTLTISSVQAEDLAVYYCQQYYNFPYTFGAGTKLELK
# modifications: synthon CZ on reduced interchain Cys of the constant regions (sites not numbered)
# B10: ChAb3-CZ-DAR2 (anti-CD98 chimeric chAb3 conjugated to Bcl-xL inhibitor synthon CZ, HIC-purified DAR2 species) (antibody, human IgG1, V domains shown)
# VH: B3 VH
# VL: B1 VL with N28S, N32S, N33S, I81F, K85R, R102Y
# modifications: Bcl-xL inhibitor synthon CZ conjugated to cysteines of the TCEP-reduced antibody (Method H); positions not given; Bcl-xL inhibitor synthon CZ conjugated to cysteines of the TCEP-reduced antibody (Method H); DAR 2.0 by MS; positions not given
# B11: ChAb3-CZ-Broad DAR (anti-CD98 chimeric chAb3 conjugated to Bcl-xL inhibitor synthon CZ, unfractionated, DAR 4.1) (antibody, human IgG1, V domains shown)
# VH: B3 VH
# VL: B1 VL with N28S, N32S, N33S, I81F, K85R, R102Y
# modifications: Bcl-xL inhibitor synthon CZ conjugated to cysteines of the TCEP-reduced antibody (Method A); positions not given; Bcl-xL inhibitor synthon CZ conjugated to cysteines of the TCEP-reduced antibody (Method A); average DAR 4.1 by MS; positions not given
# B12: ChAb3-CZ-DAR4 (anti-CD98 chimeric chAb3 conjugated to Bcl-xL inhibitor synthon CZ, HIC-purified DAR4 species) (antibody, human IgG1, V domains shown)
# VH: B3 VH
# VL: B1 VL with N28S, N32S, N33S, I81F, K85R, R102Y
# modifications: Bcl-xL inhibitor synthon CZ conjugated to cysteines of the TCEP-reduced antibody (Method H); positions not given; Bcl-xL inhibitor synthon CZ conjugated to cysteines of the TCEP-reduced antibody (Method H); DAR 4.0 by MS; positions not given
# B13: CD98 (CL-huAb110)-YG (antibody, human IgG1, kappa, L234A L235A, V domains shown)
# VH: EVQLVQSGAEVKKPGASVKVSCKASGFTFSDYTMAWVRQAPGQGLEWVATIIYDARGTYYRDAVKGRFTITRDNSTSTLYLELSSLRSEDTAVYYCARQSDDTYYYWGYFDYWGQGTMVTVSS
# VL: DIVMTQTPLSLPVTPGEPASINCKSSQSLLFSGNQKNYLAWYLQKPGQSPQLLIYWASTRQSGVPDRFSGSGSGTDFTLKISRVEAEDVGIYYCQQYYSSPYTFGQGTKLEIKR
# modifications: synthon YG on reduced cysteine (see heavy chain); Bcl-xL inhibitor synthon YG on cysteines freed by TCEP reduction (Method E); DAR 2.8 by MS for the whole ADC
# B14: CD98 (CL-huAb104)-KZ (antibody, human IgG1, kappa, L234A L235A, V domains shown)
# VH: EVQLVESGGGLVQPGGSLRLSCATSGFTFIDYYMSWVRQAPGKGLEWLGFIRNKAYGYTTEYSASVKGRFTISRDNSKSILYLQMNSLKTEDTAVYYCTRDRPAWFVYWGQGTLVTVSS
# VL: B13 VL with N22S, F31Y, G33S, Q61E, I91V, S100Y, Q106G, L110V
# modifications: synthon KZ on reduced cysteine (see heavy chain); Bcl-xL inhibitor synthon KZ on cysteines freed by TCEP reduction (Method A); DAR 2.6 by MS for the whole ADC
# B15: CD98 (CL-huAb102)-KZ (antibody, human IgG1, kappa, L234A L235A, V domains shown)
# VH: B14 VH with Y56N, G57R
# VL: B13 VL with N22S, F31Y, G33S, Q61E, I91V, S100Y, Q106G, L110V
# modifications: synthon KZ on reduced cysteine (see heavy chain); Bcl-xL inhibitor synthon KZ on cysteines freed by TCEP reduction (Method A); DAR 2.8 by MS for the whole ADC
# B16: CD98 (CL-huAb102)-KZ (second row with this label, r76, DAR 2.2) (antibody, human IgG1, kappa, L234A L235A, V domains shown)
# VH: B14 VH with Y56N, G57R
# VL: B13 VL with N22S, F31Y, G33S, Q61E, I91V, S100Y, Q106G, L110V
# modifications: synthon KZ on reduced cysteine (see heavy chain); Bcl-xL inhibitor synthon KZ on cysteines freed by TCEP reduction (Method A); DAR 2.2 by MS for the whole ADC
# Target: T1, human CD98 on the cell surface
# Assay: cell-based or functional assay
Binder,"ADC potency, IC50 (nM), H146 (SCLC) growth inhibition","ADC potency, IC50 (nM), H2170 (NSCLC) growth inhibition","ADC potency, IC50 (nM), MOLT4 (leukemia) growth inhibition"
B1,~0.196 nM,0.276 nM,0.071 nM
B2,~0.188 nM,0.161 nM,0.029 nM
B3,0.255 nM,~0.171 nM,0.026 nM
B4,0.094 nM,0.112 nM,0.038 nM
B5,0.209 nM,0.09 nM,0.035 nM
B6,0.242 nM,0.118 nM,0.034 nM
B7,0.194 nM,0.137 nM,0.048 nM
B8,0.527 nM,0.195 nM,0.199 nM
B9,0.115 nM,0.321 nM,0.052 nM

# Target: T2, human CD98 on human cancer cell lines …
# Assay: cell-based or functional assay
Binder,"ADC potency, IC50 (nM), EBC (NSCLC), growth inhibition (CellTiter-Glo)","ADC potency, IC50 (nM), H2170 (NSCLC), growth inhibition (CellTiter-Glo)","ADC potency, IC50 (nM), MOLT4 (leukemia), growth inhibition (CellTiter-Glo)"
B10,271 nM,0.273 nM,0.046 nM
B11,7.15 nM,0.15 nM,0.034 nM
B12,10.4 nM,0.225 nM,0.021 nM

# Target: T3, human CD98, endogenously expressed on …
# Assay: cell-based or functional assay
Binder,% Cell Viability at 50 nM (Molt-4),"Molt4 IC50 (nM), 50% inhibition of cell proliferation, 72 h, ATPlite"
B13,10%,0.493 nM
B14,21.2%,0.089 nM
B15,20.7%,0.062 nM
B16,16.2%,0.35 nM
